Measurements from publication PMC9302676.
Where a chain is given by its changes, count along the chain named. Names and notes keep the numbering of the source.

B1: P450 BM3 (CYP102A1) (Priestia megaterium NBRC 15308 = ATCC 14581) (protein)
chain: MTIKEMPQPKTFGELKNLPLLNTDKPVQALMKIADELGEIFKFEAPGRVTRYLSSQRLIKEACDESRFDKNLSQALKFVRDFAGDGLFTSWTHEKNWKKAHNILLPSFSQQAMKGYHAMMVDIAVQLVQKWERLNADEHIEVPEDMTRLTLDTIGLCGFNYRFNSFYRDQPHPFITSMVRALDEAMNKLQRANPDDPAYDENKRQFQEDIKVMNDLVDKIIADRKASGEQSDDLLTHMLNGKDPETGEPLDDENIRYQIITFLIAGHETTSGLLSFALYFLVKNPHVLQKAAEEAARVLVDPVPSYKQVKQLKYVGMVLNEALRLWPTAPAFSLYAKEDTVLGGEYPLEKGDELMVLIPQLHRDKTIWGDDVEEFRPERFENPSAIPQHAFKPFGNGQRACIGQQFALHEATLVLGMMLKHFDFEDHTNYELDIKETLTLKPEGFVVKAKSKKIPLGGIPSPSTEQSAKKVRKKAENAHNTPLLVLYGSNMGTAEGTARDLADIAMSKGFAPQVATLDSHAGNLPREGAVLIVTASYNGHPPDNAKQFVDWLDQASADEVKGVRYSVFGCGDKNWATTYQKVPAFIDETLAAKGAENIADRGEADASDDFEGTYEEWREHMWSDVAAYFNLDIENSEDNKSTLSLQFVDSAADMPLAKMHGAFSTNVVASKELQQPGSARSTRHLEIELPKEASYQEGDHLGVIPRNYEGIVNRVTARFGLDASQQIRLEAEEEKLAHLPLAKTVSVEELLQYVELQDPVTRTQLRAMAAKTVCPPHKVELEALLEKQAYKEQVLAKRLTMLELLEKYPACEMKFSEFIALLPSIRPRYYSISSSPRVDEKQASITVSVVSGEAWSGYGEYKGIASNYLAELQEGDTITCFISTPQSEFTLPKDPETPLIMVGPGTGVAPFRGFVQARKQLKEQGQSLGEAHLYFGCRSPHEDYLYQEELENAQSEGIITLHTAFSRMPNQPKTYVQHVMEQDGKKLIELLDQGAHFYICGDGSQMAPAVEATLMKSYADVHQVSEADARLWLQQLEEKGRYAKDVWAG
B2: P450 BM3 (CYP102A1) (Priestia megaterium NBRC 15308 = ATCC 14581; N320L/T437A) (protein)
chain: B1 chain with N320L, T437A
B3: P450 BM3 (CYP102A1) (Priestia megaterium NBRC 15308 = ATCC 14581; N320L/T412V/T437A) (protein)
chain: B1 chain with N320L, T412V, T437A
B4: P450 BM3 (CYP102A1) (Priestia megaterium NBRC 15308 = ATCC 14581; T412V/T437A) (protein)
chain: B1 chain with T412V, T437A
B5: P450 BM3 (CYP102A1) (Priestia megaterium NBRC 15308 = ATCC 14581; N320L/T412V) (protein)
chain: B1 chain with N320L, T412V

substrate: CC1=CC(=O)CC(C)(C)C1; assay: purified protein; conditions: 1 μM enzyme, 1 mM NADPH, KPi 50 mM pH 7.4, 2-50 mM substrate, 30.0 °C

B1 and B2 are within error of each other in Km: 10.95 ± 0.80 mM for the first, 10.09 ± 0.18 mM for the second.

B3 and B4 are within 1.5-fold of each other in Km: 8.29 ± 0.77 mM for the first, 11.39 ± 0.84 mM for the second.

B5 was tested, and the Km was 17.67 ± 0.46 mM.
